Where “and” joins values, the source holds several entries; their conditions need not be identical. Equal values may be shown once.
How the values were obtained:
Assay in all cases: cell-based or functional assay
mHTTex1-72Q-eGFP (human) = mHTTex1-72Q-eGFP (human) (UniProt P42858)
[1] = molecular target: human α-synuclein protein (human)
[2] = molecular target: human α-synuclein-GFP (human)

UniProt P42858, sequence (P42858 other isoform, or with tags, fused parts or gaps): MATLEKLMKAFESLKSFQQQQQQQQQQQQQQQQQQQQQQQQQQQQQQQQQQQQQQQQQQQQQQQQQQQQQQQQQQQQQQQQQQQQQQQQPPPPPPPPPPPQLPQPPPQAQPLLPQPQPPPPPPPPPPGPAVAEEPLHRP

Molecule: scFv-C4-hPEST
- soluble mHTTex1-72Q-GFP by western blot (EM48/GAPDH, normalized to EV-CON) (% relative to control) (mHTTex1-72Q-eGFP (human)): 75 to 100

Molecule: scFv-C4-hPEST-S440A
- soluble mHTTex1-72Q-GFP by western blot (EM48/GAPDH, normalized to EV-CON) (mHTTex1-72Q-eGFP (human)): 25 % of control and 0 % of control

Molecule: scFv-C4-hPEST-T436A
- soluble mHTTex1-72Q-GFP by western blot (EM48/GAPDH, normalized to EV-CON) (% relative to control) (mHTTex1-72Q-eGFP (human)): 75 to 100

Molecule: scFv-C4-hPEST-E428A-E430A-E431A
- soluble mHTTex1-72Q-GFP by western blot (EM48/GAPDH, normalized to EV-CON) (mHTTex1-72Q-eGFP (human)): 50 to 75 % of control

Molecule: scFv-C4-hPEST-E444A
- soluble mHTTex1-72Q-GFP by western blot (EM48/GAPDH, normalized to EV-CON) (mHTTex1-72Q-eGFP (human)): 50 to 75 % of control

B1: SS-PEN-DB1-PEST (VHH)
VHH: MEFGLSWLFLVAILKGVQGRQIKIWFQNRRMKWKKSRAEVQLQASGGGFVQPGGSLRLSCAASGFTSWEDTMGWFRQAPGKEREFVSAISFDANDLSDTSVYYADSVKGRFTISRDNSKNTVYLQMNSLRAEDTATYYCAVASFEILLYGESLHIYWGQGTQVTVSSAAAYPYDVPDYANPDFPPEVEEQDASTLPVSCAWESGMKRHRAACASASINV
- reduction of endogenous synuclein by western blot, 3×SNCA cortical cultures given conditioned media [1]: 30%

B2: SS-435b-N77D-hP (VHH)
VHH: VQLVESGGGGLVQPGGSLRLSCVTPGGIFSDYAMGWYRQAPGKQRELVADITVSDTTRYSDPVKGRFTISRDNAKDMVYLQMNSLKPEDAAIYTCNAQKWEDRYGSSERYDYWGQGTQVTVSS
- reduction of endogenous α-synuclein by western blot relative to SS-N77K-hP control, 3×SNCA cortical cultures [1]: 40%

B3: SS-PEN-N77D-PEST (VHH)
VHH: MEFGLSWLFLVAILKGVQGRQIKIWFQNRRMKWKKSRQVQLVESGGGGLVQPGGSLRLSCVTPGGIFSDYAMGWYRQAPGKQRELVADITVSDTTRYSDPVKGRFTISRDNAKDMVYLQMNSLKPEDAAIYTCNAQKWEDRYGSSERYDYWGQGTQVTVSSAHHSEDPAAAYPYDVPDYNPDFPPEVEEQDASTLPVSCAWESGMKRHRAACASASINV
- reduction of endogenous synuclein by western blot, 3×SNCA cortical cultures given conditioned media [1]: 40%
- reduction of endogenous α-synuclein by western blot relative to SS-N77K-hP control, 3×SNCA cortical cultures [1]: 40%
- reduction of α-Syn˜eGFP by western blot, recipient ST14A cells given conditioned media [2]: 20%

— patent publication US20250326824A1
